Assay results taken from publication PMC9482650, “Quantitative fragmentomics allow affinity mapping of interactomes” (Nature Communications, 2022).

T1: NHERF3_4, Q5T2W1
T1 sequence (Q5T2W1 373-468, limits assumed, looked up): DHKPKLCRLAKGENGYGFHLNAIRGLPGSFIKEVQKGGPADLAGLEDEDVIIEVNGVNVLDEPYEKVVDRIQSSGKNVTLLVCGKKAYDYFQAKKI

T2: GRIP1_2, Q9Y3R0
T2 sequence (Q9Y3R0 145-248, limits assumed, looked up): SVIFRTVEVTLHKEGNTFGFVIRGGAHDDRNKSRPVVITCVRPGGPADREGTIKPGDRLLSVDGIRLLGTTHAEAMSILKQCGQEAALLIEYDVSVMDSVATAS

T3: TJP3_3, O95049
T3 sequence (O95049 375-456, limits assumed, looked up): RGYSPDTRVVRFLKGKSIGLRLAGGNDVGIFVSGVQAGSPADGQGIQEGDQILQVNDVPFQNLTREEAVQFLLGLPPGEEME

T4: SIPA1L2, Q9P2F8
T4 sequence (Q9P2F8 945-1036, limits assumed, looked up): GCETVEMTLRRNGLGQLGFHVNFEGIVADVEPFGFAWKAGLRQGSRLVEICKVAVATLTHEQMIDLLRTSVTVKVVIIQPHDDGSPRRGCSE

T5: FRMPD1, Q5SYB0
T5 sequence (Q5SYB0 52-145, limits assumed, looked up): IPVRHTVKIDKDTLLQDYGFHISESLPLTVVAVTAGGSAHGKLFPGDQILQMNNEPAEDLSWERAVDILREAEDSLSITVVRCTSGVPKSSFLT

T6: CARD11, Q9BXL7
T6 sequence (Q9BXL7 662-765, limits assumed, looked up): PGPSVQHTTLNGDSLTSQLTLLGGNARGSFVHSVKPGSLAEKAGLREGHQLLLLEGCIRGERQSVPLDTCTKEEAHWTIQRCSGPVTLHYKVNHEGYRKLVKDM

T7: HTRA4, P83105
T7 sequence (P83105 378-476, limits assumed, looked up): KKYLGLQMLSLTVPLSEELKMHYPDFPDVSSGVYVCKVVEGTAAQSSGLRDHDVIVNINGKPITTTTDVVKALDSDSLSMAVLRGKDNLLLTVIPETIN

T8: NHERF3_3, Q5T2W1
T8 sequence (Q5T2W1 238-333, limits assumed, looked up): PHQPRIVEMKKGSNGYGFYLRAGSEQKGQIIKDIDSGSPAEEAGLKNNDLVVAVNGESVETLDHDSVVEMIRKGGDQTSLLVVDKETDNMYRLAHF

T9: SNTG1, Q9NSN8
T9 sequence (Q9NSN8 52-150, limits assumed, looked up): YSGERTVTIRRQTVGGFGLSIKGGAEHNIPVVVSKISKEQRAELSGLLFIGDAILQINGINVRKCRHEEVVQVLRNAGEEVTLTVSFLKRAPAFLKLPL

T10: PDZD2_2, O15018
T10 sequence (O15018 329-429, limits assumed, looked up): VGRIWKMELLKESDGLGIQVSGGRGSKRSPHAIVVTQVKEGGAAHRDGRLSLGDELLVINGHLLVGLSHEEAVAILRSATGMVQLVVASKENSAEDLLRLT

T11: SNTA1, Q13424
T11 sequence (Q13424 82-180, limits assumed, looked up): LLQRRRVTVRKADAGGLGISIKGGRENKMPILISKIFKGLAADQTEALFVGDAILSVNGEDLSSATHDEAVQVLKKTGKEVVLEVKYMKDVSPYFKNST


What was measured:
Assay in all cases: holdup assay
Parameters in all cases: key: below the threshold = too weak to quantify, mostly under pKd 3.1 to 4
Conditions in all cases: plain residues with an end cap or a label only (N-terminal biotin on a linker: ado-ado)
MAGI2_3, Q86UL8 = biological target: MAGI2_3, Q86UL8
NHERF3_4, Q5T2W1 = biological target: T1, NHERF3_4, Q5T2W1
ARHGEF12, Q9NZN5-2 = biological target: ARHGEF12, Q9NZN5-2
HTRA1, Q92743 = biological target: HTRA1, Q92743
GRIP2_4, Q9C0E4 = biological target: GRIP2_4, Q9C0E4
GRIP1_2, Q9Y3R0 = biological target: T2, GRIP1_2, Q9Y3R0
TJP3_3, O95049 = biological target: T3, TJP3_3, O95049
SIPA1L2, Q9P2F8 = biological target: T4, SIPA1L2, Q9P2F8
NHERF4_2, Q86UT5 = biological target: NHERF4_2, Q86UT5
FRMPD1, Q5SYB0 = biological target: T5, FRMPD1, Q5SYB0
MAGI2_4, Q86UL8 = biological target: MAGI2_4, Q86UL8
GIPC2, Q8TF65 = biological target: GIPC2, Q8TF65
LDB3, O75112 = biological target: LDB3, O75112
CARD11, Q9BXL7 = biological target: T6, CARD11, Q9BXL7
LNX1_3, Q8TBB1 = biological target: LNX1_3, Q8TBB1
PTPN3, P26045 = biological target: PTPN3, P26045
HTRA4, P83105 = biological target: T7, HTRA4, P83105
Inadl_6, Q8NI35 = biological target: Inadl_6, Q8NI35
NHERF3_3, Q5T2W1 = biological target: T8, NHERF3_3, Q5T2W1
SNTG1, Q9NSN8 = biological target: T9, SNTG1, Q9NSN8
Inadl_5, Q8NI35 = biological target: Inadl_5, Q8NI35
MAGI2_5, Q86UL8 = biological target: MAGI2_5, Q86UL8
PICK1, Q9NRD5 = biological target: PICK1, Q9NRD5
PDZD2_2, O15018 = biological target: T10, PDZD2_2, O15018
SNTA1, Q13424 = biological target: T11, SNTA1, Q13424
DLG1_3, Q12959 = biological target: DLG1_3, Q12959
SCRIB_2, Q14160 = biological target: SCRIB_2, Q14160
Sequence of SCRIB_2, Q14160 (Q14160 857-960): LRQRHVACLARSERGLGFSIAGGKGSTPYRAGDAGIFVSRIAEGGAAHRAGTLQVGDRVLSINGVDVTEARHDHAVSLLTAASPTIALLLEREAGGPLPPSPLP

Sequence of GRIP2_4, Q9C0E4 (Q9C0E4 446-548): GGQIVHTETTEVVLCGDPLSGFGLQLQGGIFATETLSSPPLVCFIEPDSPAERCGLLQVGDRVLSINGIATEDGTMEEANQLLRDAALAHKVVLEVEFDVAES
Sequence of LDB3, O75112 (O75112 1-94): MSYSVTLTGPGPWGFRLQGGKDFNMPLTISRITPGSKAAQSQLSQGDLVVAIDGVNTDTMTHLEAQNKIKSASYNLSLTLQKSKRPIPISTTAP
Sequence of LNX1_3, Q8TBB1 (Q8TBB1 500-596): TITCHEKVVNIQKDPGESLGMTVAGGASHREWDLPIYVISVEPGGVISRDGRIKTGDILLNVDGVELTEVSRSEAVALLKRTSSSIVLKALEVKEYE
Sequence of HTRA1, Q92743 (Q92743 360-477): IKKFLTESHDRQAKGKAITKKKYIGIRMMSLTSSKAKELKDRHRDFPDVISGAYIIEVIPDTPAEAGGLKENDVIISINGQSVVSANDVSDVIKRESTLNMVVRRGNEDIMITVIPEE
Sequence of NHERF4_2, Q86UT5 (Q86UT5 220-308): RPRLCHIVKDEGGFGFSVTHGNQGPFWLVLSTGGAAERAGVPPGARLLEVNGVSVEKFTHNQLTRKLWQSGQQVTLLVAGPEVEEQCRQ
Sequence of PICK1, Q9NRD5 (Q9NRD5 17-115): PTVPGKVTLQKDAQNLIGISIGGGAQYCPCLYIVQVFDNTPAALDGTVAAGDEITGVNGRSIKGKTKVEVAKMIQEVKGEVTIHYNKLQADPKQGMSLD
Sequence of ARHGEF12, Q9NZN5-2 (Q9NZN5 other isoform, or with tags, fused parts or gaps): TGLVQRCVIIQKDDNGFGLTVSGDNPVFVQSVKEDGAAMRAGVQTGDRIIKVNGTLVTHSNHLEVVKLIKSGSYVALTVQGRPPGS
Sequence of MAGI2_3, Q86UL8 (Q86UL8 600-682): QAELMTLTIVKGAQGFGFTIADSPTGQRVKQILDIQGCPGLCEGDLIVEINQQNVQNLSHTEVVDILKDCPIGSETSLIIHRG
Sequence of DLG1_3, Q12959 (Q12959 457-571): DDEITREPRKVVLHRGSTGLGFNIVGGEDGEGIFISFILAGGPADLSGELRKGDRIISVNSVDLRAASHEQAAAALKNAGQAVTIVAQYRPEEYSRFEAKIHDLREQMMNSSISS
Sequence of Inadl_5, Q8NI35 (Q8NI35 673-780): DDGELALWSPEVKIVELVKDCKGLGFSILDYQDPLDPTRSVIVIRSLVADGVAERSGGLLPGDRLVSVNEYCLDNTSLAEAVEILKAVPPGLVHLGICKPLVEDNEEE
Sequence of MAGI2_4, Q86UL8 (Q86UL8 772-865): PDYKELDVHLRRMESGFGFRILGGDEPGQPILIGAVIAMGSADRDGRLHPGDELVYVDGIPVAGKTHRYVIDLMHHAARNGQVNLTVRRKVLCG
Sequence of GIPC2, Q8TF65 (Q8TF65 112-203): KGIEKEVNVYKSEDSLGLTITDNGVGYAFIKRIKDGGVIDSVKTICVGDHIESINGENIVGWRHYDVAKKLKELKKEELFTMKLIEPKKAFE
Sequence of Inadl_6, Q8NI35 (Q8NI35 1058-1167): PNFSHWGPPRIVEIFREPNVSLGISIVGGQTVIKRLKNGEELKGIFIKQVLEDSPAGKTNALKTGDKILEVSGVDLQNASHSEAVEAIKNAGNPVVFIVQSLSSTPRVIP
Sequence of PTPN3, P26045 (P26045 505-587): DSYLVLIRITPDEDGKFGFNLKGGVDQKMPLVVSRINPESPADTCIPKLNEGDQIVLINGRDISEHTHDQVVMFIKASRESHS
Sequence of MAGI2_5, Q86UL8 (Q86UL8 915-1017): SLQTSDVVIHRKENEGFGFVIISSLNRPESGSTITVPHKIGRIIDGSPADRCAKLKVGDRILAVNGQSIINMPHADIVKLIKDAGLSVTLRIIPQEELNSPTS

Row | Binder | pKd (MAGI2_3, Q86UL8) | pKd (NHERF3_4, Q5T2W1) | pKd (ARHGEF12, Q9NZN5-2) | pKd (HTRA1, Q92743) | pKd (GRIP2_4, Q9C0E4) | pKd (GRIP1_2, Q9Y3R0) | pKd (TJP3_3, O95049) | pKd (SIPA1L2, Q9P2F8) | pKd (NHERF4_2, Q86UT5) | pKd (FRMPD1, Q5SYB0) | pKd (MAGI2_4, Q86UL8) | pKd (GIPC2, Q8TF65) | pKd (LDB3, O75112) | pKd (CARD11, Q9BXL7) | pKd (LNX1_3, Q8TBB1) | pKd (PTPN3, P26045) | pKd (HTRA4, P83105) | pKd (Inadl_6, Q8NI35) | pKd (NHERF3_3, Q5T2W1) | pKd (SNTG1, Q9NSN8) | also measured
1 | TSSMRGMDAV [RSRC2, Q7L4I2] | below the threshold | below the threshold | below the threshold | below the threshold | below the threshold | below the threshold | below the threshold | below the threshold | below the threshold | below the threshold | below the threshold | below the threshold | below the threshold | below the threshold | below the threshold | 3.67 | below the threshold | below the threshold | below the threshold | below the threshold | pKd (Inadl_5, Q8NI35): below the threshold; pKd (MAGI2_5, Q86UL8): below the threshold; pKd (PICK1, Q9NRD5): below the threshold; pKd (PDZD2_2, O15018): below the threshold; pKd (SNTA1, Q13424): below the threshold; pKd (DLG1_3, Q12959): below the threshold; pKd (SCRIB_2, Q14160): below the threshold
2 | QSPANIYYKV [EFNB1, P52799] | below the threshold | below the threshold | below the threshold | 4.37 | below the threshold | below the threshold | below the threshold | below the threshold | below the threshold | below the threshold | below the threshold | below the threshold | below the threshold | below the threshold | 4.38 | below the threshold | below the threshold | below the threshold | below the threshold | below the threshold | pKd (Inadl_5, Q8NI35): below the threshold; pKd (MAGI2_5, Q86UL8): below the threshold; pKd (PICK1, Q9NRD5): below the threshold; pKd (PDZD2_2, O15018): below the threshold; pKd (SNTA1, Q13424): below the threshold; pKd (DLG1_3, Q12959): below the threshold; pKd (SCRIB_2, Q14160): below the threshold
3 | HSGYRLNDYV [CLDN14, O95500] | below the threshold | below the threshold | below the threshold | 4.34 | below the threshold | below the threshold | 4.28 | below the threshold | below the threshold | below the threshold | 3.94 | below the threshold | below the threshold | below the threshold | below the threshold | below the threshold | 3.95 | below the threshold | below the threshold | below the threshold | pKd (Inadl_5, Q8NI35): 3.48; pKd (MAGI2_5, Q86UL8): below the threshold; pKd (PICK1, Q9NRD5): 4.13; pKd (PDZD2_2, O15018): 4.79; pKd (SNTA1, Q13424): below the threshold; pKd (DLG1_3, Q12959): below the threshold; pKd (SCRIB_2, Q14160): below the threshold
4 | TACCHSETVV [TGFA, P01135] | below the threshold | below the threshold | 3.56 | 4.62 | below the threshold | below the threshold | below the threshold | below the threshold | below the threshold | below the threshold | 4.4 | below the threshold | below the threshold | below the threshold | below the threshold | 4.41 | 3.59 | 3.55 | below the threshold | 4.43 | pKd (Inadl_5, Q8NI35): 3.7; pKd (MAGI2_5, Q86UL8): 4.36; pKd (PICK1, Q9NRD5): below the threshold; pKd (PDZD2_2, O15018): 4.32; pKd (SNTA1, Q13424): 5.04; pKd (DLG1_3, Q12959): 3.97; pKd (SCRIB_2, Q14160): 4.1
5 | TLPRKRMSSI [GPRC6A, Q5T6X5] | below the threshold | below the threshold | 3.54 | below the threshold | below the threshold | below the threshold | below the threshold | below the threshold | below the threshold | below the threshold | below the threshold | below the threshold | below the threshold | below the threshold | below the threshold | 4.11 | below the threshold | below the threshold | below the threshold | below the threshold | pKd (Inadl_5, Q8NI35): below the threshold; pKd (MAGI2_5, Q86UL8): below the threshold; pKd (PICK1, Q9NRD5): 4.13; pKd (PDZD2_2, O15018): 4.22; pKd (SNTA1, Q13424): below the threshold; pKd (DLG1_3, Q12959): below the threshold; pKd (SCRIB_2, Q14160): below the threshold
